First the molecules themselves.
B1: DARPin 1 (template L-Myc DARPin, net charge -13) (designed binder)
chain: DLGKKLLEAARAGQDDEVRILMANGADVNAMDQYGFTPLHLAAWYGHLEIVEVLLKHGADVNAKDVHGFTPLHLAAWTGHLEIVEVLLKNGADVNARDNEGSTPLHLAALAGHLEIVEVLLKNGADVNAQDKFGKTAFDISIDNGNEDLAEILQKL
notes: also called tDARPin S-13; S-13 tDARPin
B2: KRAS mut8 (designed binder)
chain: DLGKKLLEAARAGQNDKVRILMANGAKVNARDHTGFTPLHLAAQHGHRKIVKVLLKNGAKVNAVDWFGRTPLHLAAKMGHLEIVKVLLKHGANVKADDHNGRTPLHLAAWEGHLEIVKVLLKYGAKVNAQDKFGKTAFDISIENGNEKLAKILQKL
notes: Net charge 12; Tested on phage
B3: KRAS mut10 (designed binder)
chain: B2 chain with L114R, E115K, I142V
notes: Net charge 15; Tested on phage
B4: KRAS mut7 (designed binder)
chain: B2 chain with K27N, R48L, K49E, L81R, E82K
notes: Net charge 11; Tested on phage
B5: KRAS mut11 (designed binder)
chain: B2 chain with L81R, E82K, N93D, K95N, L114R, E115K
notes: Net charge 16; Tested on phage
B6: KRAS mut9 (designed binder)
chain: B2 chain with K60N, N62K, L81R, E82K, K85E, L114R, E115K, K126D
notes: Net charge 14; Tested on phage
B7: KRAS mut6 (designed binder)
chain: B2 chain with K60D, N93K, K95N
notes: Net charge 10; Tested on phage
B8: LMYC mut8 (designed binder)
chain: DLGKKLLEAARAGQNDKVRILMANGAKVNAMDQYGFTPLHLAAWYGHRKIVKVLLKHGANVKAKDVHGFTPLHLAAWTGHLEIVKVLLKNGANVKARDNEGSTPLHLAALAGHLEIVKVLLKNGAKVNAQDKFGKTAFDISIENGNEKLAKILQKL
notes: as for B4
B9: LMYC mut11 (designed binder)
chain: B8 chain with K27D, L81R, E82K
notes: as for B2
B10: LMYC mut9 (designed binder)
chain: B8 chain with N93K, K95N
notes: as for B4
B11: LMYC mut7 (designed binder)
chain: B8 chain with K27N, N29K, K85E, N93D, K95N, L114R, E115K
notes: Tested on phage
B12: CD73 mut11 (designed binder)
chain: DLGKKLLEAARAGQNDKVRILMANGAKVNAADTWGRTPLHLAAYHGHLEIVKVLLKHGANVNAEDIHGFTPLHLAALWGHRKIVKVLLKNGAKVNAVDWYGHTPLHLAAIDGHRKIVKVLLKHGAKVNAQDKFGKTAFDISIENGNEKLAKILQKL
notes: as for B4

Residue numbers refer to the chain shown, from its start.

In one assay the target is T1, SUMO-L-Myc fusion protein (recombinant bHLHZip domain of L-Myc fused with a small ubiquitin-like modifier … (UniProt P12524 281-364)).
T1 construct: not shown: small ubiquitin-like modifier (SUMO) protein
T1 sequence (looked up): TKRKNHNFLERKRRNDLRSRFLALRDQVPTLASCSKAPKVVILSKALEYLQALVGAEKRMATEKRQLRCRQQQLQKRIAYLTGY
Put plainly: second phage ELISA on coated antigens.
In the case of B1, the binding result is “binds”.

In the next assay the target is T2, KRAS (UniProt P01116-2 1-188, limits assumed).
T2 construct: Target antigen in phage ELISA; construct not described
The experiment in a line: phage ELISA on target antigen, signal as % of parental WT.
Take B2: the “% antigen binding activity retained (relative to parental)” value was above 50%.
Take B3: the “% antigen binding activity retained (relative to parental)” value was above 50%.
For the molecule B4, the “% antigen binding activity retained (relative to parental)” value was above 50%.
The same measure, in the same setting: the value for B5 was above 50%; that for B6 was above 50%.
Still for that read-out and setting: in the case of B7 it was above 50%.

In another assay the target is T1, SUMO-L-Myc fusion protein (recombinant …). Described as above.
As to B8, the “% antigen binding activity retained (relative to parental)” value was above 50%.
On to B9, for which the “% antigen binding activity retained (relative to parental)” value is above 50%.
Still for that read-out and setting: the value for B10 was above 50%.
On the same count and under the same terms, in the case of B11 it was above 50%.

Another assay concerns the target T3, CD73 (UniProt P21589 27-549, limits assumed).
T3 construct: Target antigen in phage ELISA; construct not described
T3 sequence (looked up): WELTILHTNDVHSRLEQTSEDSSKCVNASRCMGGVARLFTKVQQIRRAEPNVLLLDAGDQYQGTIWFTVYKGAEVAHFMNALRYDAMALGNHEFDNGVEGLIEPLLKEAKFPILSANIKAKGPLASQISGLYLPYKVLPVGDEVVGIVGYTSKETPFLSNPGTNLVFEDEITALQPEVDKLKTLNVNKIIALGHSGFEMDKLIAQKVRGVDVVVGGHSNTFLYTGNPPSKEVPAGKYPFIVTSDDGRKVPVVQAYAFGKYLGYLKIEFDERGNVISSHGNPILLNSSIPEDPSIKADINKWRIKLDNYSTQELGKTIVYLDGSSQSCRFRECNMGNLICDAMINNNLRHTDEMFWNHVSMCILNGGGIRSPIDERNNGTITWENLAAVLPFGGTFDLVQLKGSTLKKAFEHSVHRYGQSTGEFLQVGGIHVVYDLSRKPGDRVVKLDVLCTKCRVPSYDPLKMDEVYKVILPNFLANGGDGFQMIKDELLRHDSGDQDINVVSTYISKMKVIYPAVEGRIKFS
The description is as above.
Turning to B12, the “% antigen binding activity retained (relative to parental)” value was above 50%.

The values are drawn from patent publication US20170226158A1 (AstraZeneca / MedImmune, published 2017).
